Consider seven molecules from patent US20200317776A1 (published 2020).

The target of assay [1] is human TREM2/DAP12 fusion protein (human, UniProt O43914 41-113, limits assumed). Kind of assay: cell-based or functional assay.
Assay [2] concerns the target T1, human TREM2 Fc fusion (entire TREM2 ECD; only one Fc arm fused to TREM2) (human, UniProt Q9NZC2 19-174).
T1 construct: also called huTREM2-Fc; recombinant hTREM2
T1 sequence: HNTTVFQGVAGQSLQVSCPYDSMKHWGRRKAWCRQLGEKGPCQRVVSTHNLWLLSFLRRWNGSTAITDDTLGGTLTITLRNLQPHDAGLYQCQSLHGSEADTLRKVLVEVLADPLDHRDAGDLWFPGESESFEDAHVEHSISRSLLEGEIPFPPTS
Kind of assay: BLI, Fab, monovalent. How it is done: Briefly, IgG's were loaded on-line onto AHQ sensors. Sensors were equilibrated off-line in assay buffer for 30 minutes and then monitored on-line for 60 seconds for baseline establishment. For avid binding measurement, sensors with loaded IgGs were exposed to 100 nM antigen (human TREM2 Fc fusion using the entire TREM2 ECD; only one Fc arm was fused to TREM2) for 3 minutes, afterwards they were transferred to assay buffer for 3 minutes for off-rate measurement. Monovalent binding measurements were obtained by loading human TREM2 Fe fusion antigens to AHQ sensor and followed by exposure to 100 nM TREM2 antibody Fab. Kinetics data were fit using a 1:1 binding model in the data analysis software provided by ForteBio. Assay was run at room temperature (25° C.).

Assay [3] concerns the target T2, human TREM2 expressed on cells (human, UniProt Q9NZC2 19-230).
T2 construct: BW5147.G.1.4 cells stably expressing human TREM2 together with Dap12, or endogenous TREM2 of primary human myeloid cells; also called huT2 BW; hTREM2 expressing cell line
T2 sequence: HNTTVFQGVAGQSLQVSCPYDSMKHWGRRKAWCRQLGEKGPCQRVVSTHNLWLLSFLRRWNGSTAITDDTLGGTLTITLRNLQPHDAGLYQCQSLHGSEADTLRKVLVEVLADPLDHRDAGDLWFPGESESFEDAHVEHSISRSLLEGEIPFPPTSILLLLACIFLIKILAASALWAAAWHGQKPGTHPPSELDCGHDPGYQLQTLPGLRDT
Kind of assay: FACS, hTREM2 BW cells. The procedure: To examine cell binding of anti-TREM2 antibodies, recombinant, human TREM2-expressing BW5147.G.1.4 cells (ATCC® TIB48™) were established by stably expressing either mouse TREM2 or human TREM2 together with Dap12 using viral infection. Cells were harvested by scraping, washed in PBS, counted and plated on 96-well U bottom plates at 1)(10⁵ cells/well. The plates were spun at 1,400 rpm for 3 minutes and primary anti-TREM2 or control antibodies were added in FACS buffer (PBS H2% FBS) and incubated on ice for one hour. Cells were subsequently centrifuged as before and washed thrice with FACS buffer. Cells were then incubated with anti-human PE conjugated secondary antibody (BD Biosciences) in FACS buffer for 30 minutes on ice. Cells were again washed thrice with FACS buffer and analyzed on a BD FACS Canto. Binding was measured as mean fluorescence intensity in the APC channel.
Background: Flow cytometry measures light scatter and fluorescence of single cells or particles in a stream.

Chain of human TREM2/DAP12 fusion protein (O43914 other isoform, or with tags, fused parts or gaps limits assumed): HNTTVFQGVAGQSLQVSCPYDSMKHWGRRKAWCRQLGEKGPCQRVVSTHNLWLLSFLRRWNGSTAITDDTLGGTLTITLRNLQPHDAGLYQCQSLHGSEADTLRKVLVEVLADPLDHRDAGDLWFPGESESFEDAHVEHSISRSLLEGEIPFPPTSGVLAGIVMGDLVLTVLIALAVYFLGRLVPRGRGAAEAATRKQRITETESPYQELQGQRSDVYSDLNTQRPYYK

B1: AL2p-h59 (antibody, human IgG1, V domains shown)
VH: QVQLVQSGAEVKKPGASVKVSCKASGYAFSSSWMNWVRQAPGQRLEWMGRIYPGDGDTNYAQKFQGRVTITRDTSASTAYMELSSLRSEDTAVYYCARLLRNQPGESYAMDYWGQGTLVTVSS
VL: DIVMTQSPLSLPVTPGEPASISCRSSQSLVHSNGYTYLHWYLQKPGQSPQLLIYKVSNRFSGVPDRFSGSGSGTDFTLKISRVEAEDVGVYYCSQSTRVPYTFGGGTKVEIK
notes: humanized, human IgG1; Fab and IgG formats under one id
In general, Kd refers to the free concentration of one partner at which half of the binding sites on the other are occupied at equilibrium, for simple one-to-one binding. Read a high Kd as lower affinity. Turning to B1, in assay [1], the “Soluble luciferase activation at 10 µg/ml Fold over control” value is 7.06 fold over control. In assay [2], this molecule displayed an equilibrium dissociation constant (Kd) of 130 nM. For the same molecule, the “cell binding (FOB)” value in assay [3] stood at 69 FOB.

B2: AL2p-h43 (antibody, human IgG1, V domains shown)
VH: QVQLVQSGAEVKKPGASLKVSCKASGYAFSSSWMNWVRQAPGQRLEWIGRIYPGDGDTNYNGEFRVRATLTADTSASTAYMELSSLRSEDTAVYFCARLLRNQPGESYAMDYWGQGTLVTVSS
VL: DVVMTQTPLSLSVTPGQPASISCRSSQSLVHSNGYTYLHWYLQKPGQSPQLLIYKVSNRFSGVPDRFSGSGSGTDFTLKISRVEAEDVGVYYCSQSTRVPYTFGQGTKLEIK
notes: as for B1
Consider B2, for which, in assay [1], the “Soluble luciferase activation at 10 µg/ml Fold over control” value came to 8.65 fold over control. The molecule further gave an equilibrium dissociation constant (Kd) in assay [2] of 134 nM. Further, the “cell binding (FOB)” value in assay [3] was 91 FOB.

B3: AL2p-h24 (antibody, human IgG1, V domains shown)
VH: QVQLVQSGAEVVKPGASLKISCKASGYAFSSSWMNWVRQAPGQGLEWIGRIYPGDGDTNYNQKFQGRATLTADTSTSTAYMELSSLRSEDTAVYFCARLLRNQPGESYAMDYWGQGALVTVSS
VL: DVVMTQTPLSLSVTPGQPASISCRSSQSLVHSNGYTYLHWYLQKPGQSPQLLIYKVSNRFSGVPDRFSGSGSGTDFTLKISRVEAEDLGVYFCSQSTRVPYTFGQGTKLEIK
notes: as for B1
As for B3, the “Soluble luciferase activation at 10 µg/ml Fold over control” value in assay [1] was 4.36 fold over control. In addition, in assay [2], the Kd was found to be 1150 nM. The “cell binding (FOB)” value in assay [3] came to 69 FOB.

B4: AL2p-h25 (antibody, human IgG1, V domains shown)
VH: QVQLVQSGAEVKKPGASLKISCKASGYAFSSSWMNWVRQAPGQGLEWIGRIYPGDGDTNYNGEFRVRATLTADTSTSTAYMELSSLRSEDTAVYYCARLLRNQPGESYAMDYWGQGALVTVSS
VL: DVVMTQTPLSLSVTPGQPASISCRSSQSLVHSNGYTYLHWYLQKPGQSPQLLIYKVSNRFSGVPDRFSGSGSGTDFTLKISRVEAEDLGVYFCSQSTRVPYTFGQGTKLEIK
notes: as for B1
With B4, the “Soluble luciferase activation at 10 µg/ml Fold over control” value in assay [1] came to 7.45 fold over control. Binding in assay [2] was characterised by a dissociation constant (Kd) of 153 nM. In addition, in assay [3], the “cell binding (FOB)” value came to 90 FOB.

B5: AL2p-h32 (antibody, human IgG1, V domains shown)
VH: QVQLVQSGAEVKKPGSSVKVSCKASGYAFSSSWMNWVRQAPGQGLEWIGRIYPGDGDTNYNGEFRVRATLTADTSTTTAYMELSSLRSEDTAVYFCARLLRNQPGESYAMDYWGQGTLVTVSS
VL: DVVMTQTPLSLSVTPGQPASISCRSSQSLVHSNGYTYLHWYLQKPGQSPQLLIYKVSNRFSGVPDRFSGSGSGTDFTLKISRVEAEDLGVYFCSQSTRVPYTFGQGTKLEIK
notes: as for B1
On to B5, for which the “Soluble luciferase activation at 10 µg/ml Fold over control” value in assay [1] stood at 5.6 fold over control. This molecule also came in with a Kd in assay [2] of 144 nM. For the same molecule, the “cell binding (FOB)” value in assay [3] is 81 FOB.

B6: AL2p-h90 (antibody, human IgG1, V domains shown)
VH: QVQLVQSGAEVKKPGASVKVSCKASGYAFSSSWMNWVRQAPGQRLEWIGRIYPGDGDTNYAQKFQGRVTITADTSASTAYMELSSLRSEDTAVYYCARLLRNQPGESYAMDYWGQGTLVTVSS
VL: DVQMTQSPSSLSASVGDRVTITCRSSQSLVHSNGYTYLHWYQQKPGKSPKLLIYKVSNRFSGVPSRFSGSGSGTDFTLTISSLQPEDFATYYCSQSTRVPYTFGGGTKVEIK
notes: as for B1
Consider B6, for which the “Soluble luciferase activation at 10 µg/ml Fold over control” value in assay [1] turned out to be 4.35 fold over control. The same molecule came in with a Kd in assay [2] of 61.2 nM. In assay [3], the “cell binding (FOB)” value is 126 FOB.

B7: AL2p-h76 (antibody, human IgG1, V domains shown)
VH: QVQLVQSGAEVKKPGASVKVSCKASGYAFSSSWMNWVRQAPGQRLEWIGRIYPGDGDTNYAQKFQGRATITADTSASTAYMELSSLRSEDTAVYFCARLLRNQPGESYAMDYWGQGTLVTVSS
VL: DVVMTQSPDSLAVSLGERATINCRSSQSLVHSNGYTYLHWYQQKPGQSPKLLIYKVSNRFSGVPDRFSGSGSGTDFTLTISSLQAEDVAVYYCSQSTRVPYTFGGGTKVEIK
notes: as for B1
On to B7, for which the “Soluble luciferase activation at 10 µg/ml Fold over control” value in assay [1] was found to be 6.57 fold over control. In assay [2], this molecule came in with a Kd of 83 nM. In addition, in assay [3], the “cell binding (FOB)” value amounted to 86 FOB.
